Substitutions are numbered along the chain they refer to. Numbers in names are those of the source.
How the values were obtained:
[1] = biological target: T1, IRF9–IAD_(182–385) E347A E348A (crystallised form in the complex) (mouse, UniProt Q61179 182-385, E347A | E348A); assay: crystal structure
T1 sequence (looked up): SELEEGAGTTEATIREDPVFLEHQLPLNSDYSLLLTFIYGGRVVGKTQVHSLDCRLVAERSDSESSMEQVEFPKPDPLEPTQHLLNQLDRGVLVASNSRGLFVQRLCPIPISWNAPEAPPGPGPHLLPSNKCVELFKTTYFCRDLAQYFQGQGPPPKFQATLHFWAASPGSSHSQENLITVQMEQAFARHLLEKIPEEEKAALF

[2] = biological target: T2, STAT1_(136–713) (mouse, UniProt P42225 136-713); assay: ITC
T2 sequence (looked up): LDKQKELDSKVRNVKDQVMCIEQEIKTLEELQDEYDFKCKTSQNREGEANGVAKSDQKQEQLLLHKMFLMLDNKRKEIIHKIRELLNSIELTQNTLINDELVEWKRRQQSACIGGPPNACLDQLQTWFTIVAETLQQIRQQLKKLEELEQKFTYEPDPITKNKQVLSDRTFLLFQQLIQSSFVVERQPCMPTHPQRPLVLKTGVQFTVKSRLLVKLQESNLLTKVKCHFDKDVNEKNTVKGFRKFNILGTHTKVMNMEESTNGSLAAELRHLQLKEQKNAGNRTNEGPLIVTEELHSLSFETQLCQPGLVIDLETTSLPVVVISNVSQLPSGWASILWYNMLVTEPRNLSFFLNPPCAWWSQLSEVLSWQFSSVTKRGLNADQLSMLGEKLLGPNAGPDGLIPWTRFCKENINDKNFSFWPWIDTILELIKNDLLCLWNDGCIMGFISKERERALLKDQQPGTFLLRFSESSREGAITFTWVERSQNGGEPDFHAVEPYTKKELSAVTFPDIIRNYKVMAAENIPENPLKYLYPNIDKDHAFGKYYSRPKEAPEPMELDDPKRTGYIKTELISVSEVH

[3] = biological target: T3, STAT2_(133–679) (mouse, UniProt Q9WVL2 133-679); assay: ITC
T3 sequence (looked up): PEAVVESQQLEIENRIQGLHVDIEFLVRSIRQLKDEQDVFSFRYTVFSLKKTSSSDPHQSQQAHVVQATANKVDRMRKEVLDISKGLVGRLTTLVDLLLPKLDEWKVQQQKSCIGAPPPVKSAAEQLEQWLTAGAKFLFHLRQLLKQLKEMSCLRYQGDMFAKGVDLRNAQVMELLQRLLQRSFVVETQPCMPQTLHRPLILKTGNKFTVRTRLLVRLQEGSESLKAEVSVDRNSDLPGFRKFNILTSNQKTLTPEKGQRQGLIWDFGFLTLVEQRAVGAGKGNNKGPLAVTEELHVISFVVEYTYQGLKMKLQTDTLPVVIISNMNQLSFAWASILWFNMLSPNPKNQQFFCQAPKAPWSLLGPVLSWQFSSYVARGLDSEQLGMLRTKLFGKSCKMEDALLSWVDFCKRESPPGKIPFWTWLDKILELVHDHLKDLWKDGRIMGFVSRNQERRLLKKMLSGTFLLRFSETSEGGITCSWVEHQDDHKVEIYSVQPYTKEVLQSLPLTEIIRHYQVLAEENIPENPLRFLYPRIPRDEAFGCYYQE

[4] = biological target: T4, STAT1_(136–713) E169V (mouse, UniProt P42225 136-713, E169V); assay: ITC
T4 sequence (looked up): T2 sequence (looked up) with E34V

[5] = biological target: T5, STAT2_(133–679) V171E (mouse, UniProt Q9WVL2 133-679, V171E); assay: ITC
T5 sequence (looked up): T3 sequence (looked up) with V39E

[6] = biological target: T6, STAT2_(133–738) (mouse, UniProt Q9WVL2 133-738); assay: SEC
T6 sequence (looked up): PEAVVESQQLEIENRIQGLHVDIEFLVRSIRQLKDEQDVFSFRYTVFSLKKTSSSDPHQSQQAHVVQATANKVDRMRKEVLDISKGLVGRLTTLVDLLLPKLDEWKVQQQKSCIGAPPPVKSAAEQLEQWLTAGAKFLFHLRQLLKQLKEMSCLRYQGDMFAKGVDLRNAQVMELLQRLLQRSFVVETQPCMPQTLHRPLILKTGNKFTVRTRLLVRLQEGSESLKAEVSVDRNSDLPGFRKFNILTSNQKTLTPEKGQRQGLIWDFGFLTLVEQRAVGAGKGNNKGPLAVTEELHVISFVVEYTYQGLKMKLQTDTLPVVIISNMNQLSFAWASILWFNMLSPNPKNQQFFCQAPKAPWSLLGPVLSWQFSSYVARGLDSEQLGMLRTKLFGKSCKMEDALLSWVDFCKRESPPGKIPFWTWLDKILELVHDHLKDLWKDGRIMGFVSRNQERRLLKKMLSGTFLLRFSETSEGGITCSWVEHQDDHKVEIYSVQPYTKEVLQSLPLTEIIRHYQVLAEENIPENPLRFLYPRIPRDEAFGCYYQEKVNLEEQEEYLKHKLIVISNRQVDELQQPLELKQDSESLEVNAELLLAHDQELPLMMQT

B1: STAT2–CCD_(133–315) Q242A K243A (crystallised form) (domain or fragment, mouse, UniProt Q9WVL2 133-315, looked up)
chain: PEAVVESQQLEIENRIQGLHVDIEFLVRSIRQLKDEQDVFSFRYTVFSLKKTSSSDPHQSQQAHVVQATANKVDRMRKEVLDISKGLVGRLTTLVDLLLPKLDEWKVQQAASCIGAPPPVKSAAEQLEQWLTAGAKFLFHLRQLLKQLKEMSCLRYQGDMFAKGVDLRNAQVMELLQRLLQRS
Question: Does B1 bind [1]?
Answer: Result: binds

B2: IRF9–IAD_(182–385) (domain or fragment, mouse, UniProt Q61179 182-385, looked up)
chain: T1 sequence (looked up) with A166E, A167E
Question: Which results are given for B2?
Answer: Kd [2]: 5000 nM; Kd [3]: 10 nM; Kd [4]: 116 nM; Kd [5]: 2500 nM

B3: IRF9–IAD IF3 (L326A, F330A, I376A) (domain or fragment, mouse, UniProt Q61179 182-385, looked up)
chain: T1 sequence (looked up) with L145A, F149A, A166E, A167E, I195A
Question: Which Kd [3] does the source give for B3 here?
Answer: Its Kd is 17 nM.

B4: IRF9–IAD IF2 (R324E, D325K, Q331E, Q333E, P335S) (domain or fragment, mouse, UniProt Q61179 182-385, looked up)
chain: T1 sequence (looked up) with R143E, D144K, Q150E, Q152E, P154S, A166E, A167E
Question: How did the Kd [3] turn out when B4 was run?
Answer: Its Kd is 11 nM.

B5: full-length IRF9 (IRF9FL) (natural protein, mouse, UniProt Q61179 1-399, looked up)
chain: MASGKVRCTRKLRSWIVEQVESGHFPGVCWDDAAKTMFRIPWKHAGKQDFREDQDAAIFKAWALFKEKHKDGDIGHPAVWKTRLRCALNKSSEFEEVPERGRMDVAEPYKVYRILPAGTLPNQPRNQKSPCKRSISCVSPEREENMENGRTNGVVNHSDSGSNIGGGGNGSNRSDSNSNCNSELEEGAGTTEATIREDPVFLEHQLPLNSDYSLLLTFIYGGRVVGKTQVHSLDCRLVAERSDSESSMEQVEFPKPDPLEPTQHLLNQLDRGVLVASNSRGLFVQRLCPIPISWNAPEAPPGPGPHLLPSNKCVELFKTTYFCRDLAQYFQGQGPPPKFQATLHFWEESPGSSHSQENLITVQMEQAFARHLLEKIPEEEKAALFLLQHTEQSPSALGH
Question: Does B5 bind [6]?
Answer: Result: binds

Reference: publication PMC5789952 (Proceedings of the National Academy of Sciences of the …, 2017)
